From the DeepSol protein solubility set

Assay: soluble on expression in E. coli; label from the status in PepcDB or PDB records

Sequence | soluble on expression in E. coli
MNHQETMTDYLMAFIEGLKNSGVEQAVISPGSRSTPLALLLHRETAIQTFVDVDERSAAFFALGLSKASQKPVVLLCTSGTAAANYYPAICEANISHVPLVVLTTDRPHELRQVGAPQAMDQLQMYQNHVKLFVEMALPEATEEMLNYAYWQGAKGAAFAQQTPAAPVHLNFPLREPLLPDLERKTKSSQQTALFAGQSILSTEQVQQLADQWYQKNGVLVVGGSHTEEEATLFIQLAEALQWPLLADPLANIVTHGQNSEVVIAHSDLFLNVATLPQEPEVVVRFGSLPISKNIMLWLKRLATTETAFYFVDENGQWQEQLKKSQTVIQAKETTFVEQLLTVVKPTEATWLAQWLLLEKTVSEVLLETLNATELNETTASLAVHQTMKENGQLFVSNSMAIRYLDRFMDSRPYRMFGNRGINGIDGIVSTALGMSAIAPTQQNVLLIGDLALYHDMNGLFLAKRYQLPLTIVLLNNNGGGIFSFLSQRTLREDDFEPLFGTPLDLDFSLVAELYGASYQEVKTIAELKQILQAAAEEPQFQVIEVKGNRQENVHLYESILAEIGRRVERQGISWNG | not soluble
MEIPTAKPQKEHEFLNRIVGDWIMTASSGHEAYDPNDPEQVFIEKVRSIGGLWIIGEGTGKMPDGTSMTAVITVGFDPAKGNFVGTWVGSMMTNLWVYKGWLEEDGKTLTLEAEGPAFDGSGDTATYHDVLVLHDDNHRSFSGSVKQPDGTFKTFMTSEFRRKT | soluble
MTTTGIIAEFNPFHNGHKYLLDQAHGLKIVAMSGNFVQRGEPAIIDKWTRAQMALENGADLVVELPFLVAVQSADYFASGAVDILAKLGIDTLAFGTETALDYNGLSTIYGKMAEQMSEFLTTLPEKLSYPQKTQLMWEKFAGVQFTGDTPNHILALAYAKACAGRNIRLRPIQRRGADYHSTEKTVAYASATSLRHHRQDPAFVAKSMPNANLFQTSPQVTWEDYFTLLQYQVLTQPDLTQLFQVNEELAIRIKKAIRQVTSFDQLVETVATKRYTKARVRRILIYILIGARETSLPQDVHILGFTAAGRTHLSHIKNKTRIISRIGSQPWDALTQQADQVYQLGNPKIAEQTWGRVPI | not soluble
SKNAVANSSSSEPAVSQTENASSSLEHENKARELASDAQANKTQELAPDSRQESLAPQEPFIDINRMLDSLSGDEGAVRMLLEVFIQDHAEDGSKLHKLLNEDIDNAQRAAHSLKGVSGSLGAMPLHYISGEIELLIKQGKEVPDNKLCQLRDVLQQTTLFAEKVLNSEKIREVLTD | not soluble
MATGSGSLIWFRKGLRVHDNPALEYASKGSEFMYPVFVIDPHYMESDPSAFSPGSSRAGVNRIRFLLESLKDLDSSLKKLGSRLLVFKGEPGEVLVRCLQEWKVKRLCFEYDTDPYYQALDVKVKDYASSTGVEVFSPVSHTLFNPAHIIEKNGGKPPLSYQSFLKVAGEPSCAKSELVMSYSSLPPIGDIGNLGISEVPSLEELGYKDDEQADWTPFRGGESEALKRLTKSISDKAWVANFEKPKGDPSAFLKPATTVMSPYLKFGCLSSRYFYQCLQNIYKDVKKHTSPPVSLLGQLLWREFFYTTAFGTPNFDKMKGNRICKQIPWNEDHAMLAAWRDGKTGYPWIDAIMVQLLKWGWMHHLARHCVACFLTRGDLFIHWEQGRDVFERLLIDSDWAINNGNWMWLSCSSFFYQFNRIYSPISFGKKYDPDGKYIRHFLPVLKDMPKQYIYEPWTAPLSVQTKANCIVGKDYPKPMVLHDSASKECKRKMGEAYALNKKMDGKVDEENLRDLRRKLQKDEHEESKIRNQRPKLK | soluble
MVEIFNEIMQRVKEAETIIIHRHVRPDPDAYGSQLGLKLYLERKFPEKNIYATGEAEPSLSFIGDLDEIDDSVYSDALVIVCDTANAPRIDDQRYLNGQSLIKIDHHPATDQYGDVNFVNTEASSTSEIIFDFISHFNDLSIIDEHVARVLYLGIVGDTGRFLFSNTSPHTMEVASQLLAYPFNHNAELNKMSEKDPKLMPFQGYVLQNFELSDSHEYCQIKITNDVLKQFDIQPNEASQFVNTVADISGLKIWMFGVDEGDQIRCRIRSKGITINDVANQFGGGGHPNASGVSVYSWDEFEELAQALRQKLLEHHHHHH | soluble
MKRDRSDYEESMKHIDIVESLMMLSRSFVVKQIDVKQSTGSKTNHNNHFECKTCNRKFDSFQALGGHRASHKKPKLIVDQEQVKHRNKENDMHKCTICDQMFGTGQALGGHMRKHRTSMITEQSIVPSVVYSRPVFNRCSSSKEILDLNLTPLENDLVLIFGKNLVPQIDLKFVN | soluble
MGSDKIHHHHHHMSRVACAYIIRKATGEHECCETLEEHVQRSLEVWLGRLKKCYSSAVNRIIYSQGSQTLASVLGDPVAVAIVLHDIGKAVPAYQKKRIMRGRVQYRHELVSGALSLLAIEKAADMAGIGRNDRGLYVFEVPLAVMMHHESISMGVLAGELGERFVTLSVASLMLEDYYDGELWGLERLARTVKNMGAVGDAVVDVLKILSGSPPSRKEVLIALGRLKAYSLSGDTLSRLSARARVAGILHPLVVADSIAANEGRKRCNGDGGTWIVKRALGRDSQEPAEPCLS | not soluble
MSLTVPTILVIDDDVQVCETIASLLARLRYACETAHSLEQGLAILETAPVDVVFLDVRLPDGNGIDALPRIRQAPSHPEVIILTGEGDPDDAELAIQGGVWDYLVKPTPIKQTTLTLARALQYRAEKLSKGGGGTVALDLDGVVGISPSMRQCFDLVANAATTEANVLVTGETGTGKELLARTIHRNSPRRNGPFVVVDCAALTESLVESTLFGHKRGAFTGAQQDRDGLVKLADGGTLFLDEVGEMPLAIQRAFLRILQERSFRPVGGTQEIRSDFRLISATNRDLDAMVERGEFRKDLLFRLNTVHVELPPLRTRPEDLKPLAIFHMNRLAEQYGVPAKGFATDFFQQLAQYDWPGNVREFFNVLERSFVISGLEGVLYAMHLPQDVRIKITRASLARSEGHHHHHH | soluble
MHHHHHHSSGVDLGTENLYFQSMHGWGYGQDDGPSHWHKLYPIAQGDRQSPINIISSQAVYSPSLQPLELSYEACMSLSITNNGHSVQVDFNDSDDRTVVTGGPLEGPYRLKQFHFHWGKKHDVGSEHTVDGKSFPSELHLVHWNAKKYSTFGEAASAPDGLAVVGVFLETGDEHPSMNRLTDALYMVRFKGTKAQFSCFNPKCLLPASRHYWTYPGSLTTPPLSESVTWIVLREPICISERQMGKFRSLLFTSEDDERIHMVNNFRPPQPLKGRVVKASF | soluble
MKDVIEKRHIRAEVPIELTWDLSDLYESDKKWETALRVLTDDIKKLDAFKGQLHTSPTTLLHCLLLEEELLMKLTKLYSYANLKESTDRTNPVIQANSSKIAALWTKVHTALSFIHNEILSLEEGTIEKYLTKETKLEPFRKSLLDILQKRQYTLSPETEEALAALGEVHSSPYKIYGMTKLADMDFNSIQDEQGNELPVSFSLFESKYEFSPSVDIRRKAYSSFVSTLKRYKNTVATTYATEVKKQVTLSRLRKFESVTHMLLEPQNVPLEMYNNQLDIIYKELAPHMRRFADLKKKVLGLDQMLFCDLHAPLDPEFNPAITYEEAGKLIQDSLQVLGDEYSAIIKKGFKERWVDLADNVGKSTGAFCSSPYGSHPYILITWQNTMRGCFTLAHEFGHAGHFYLANKNQRIMNVRPSMYFVEAPSTMNELLLAQHLLATTDDKRMRRWVILQLLGTYYHNFVTHLLEGEYQRRVYSLAEEGEALTATTLTEIKTNVLSTFWGNSVEIDEGAGLTWMRQPHYYMGLYSYTYSAGLTASTAVAQMIKEEGQPAVDRWLDVLRAGGTMKPLELMKHAGVDMSKPDAIRKAVSYVGSLIDELERSYEE | not soluble
PGVGDYKGLLKWTSHNQYEKEVKKADEQYGKLYAKFADMPIEKVAKDPQAKQIAQNLFNTYCIQCHGSDAKGSKGFPNLTDSDWLWGGDPDKIHETIEKGRVATMPAWGPALGEEGVKDVAHYVMSLSKPEGQYDEERAARGQALFSGPPANCFTCHGDKGQGIQGLGPNLTDDVWLWGGTQKSIIETITNGRSSQMPAWGHFLDKDKLHIMTAYVWGLSDKDGKAPVKKAEPAPTPAPAAEPAASAPAEAAQAVSEAKPAAAEPKAEEKAAPAAKADGK | not soluble
MLTRSMVLVNEAWWVEPLPVHWVDKLVAELEAKLQNRGKDEYIFNGGLSVSGLQHIGRLRGEVLLGEAVRRELEKRGFRVKQLLTLYTVDPWKGKDEQRREFPDPKAAERYVGWPLDRVPDPKGCHASWVDHFWSDFGPYIGVFTDGKIEVVTTRELYKGRLKEFITTMVLPRRDEIRRVINKYRGRKPYQEGWIPLEPRCARCGRIDSTEALEILGGERVRYRCSYCGYQGESSIEDSKLNWRIEWAGVWWSLGVDFEPYGKDHATPGGSRDSAAELARLLGFEPPEGVWYEWVSLRAGGREADMSSSGFTGITPREWLDIAHPQILRFIYFLHPPTRRVVVDLSEIPSYYSQYYRAERIYFGIEEASTVEETRYLARTYELSHPSNPPAKPPSQIPYSHAAIVAQVVGPERLWTDGLERLKRAGLLGHDEYSIRWAKELLEKAYKWARRYAPKHLKFEIPDSPPEDALRRIEKPDLLEKLAEVLESVEEWSEERIKQALVEFGEGMSSSERRRFYRDFYLAIVGRPEGPRAAPLLSLMDRGFVVDRLRKAANLSRELKGR | soluble
MTFQNKKILVAGLGGTGISMIAYLRKNGAEVAAYDAELKAERVAQIGKMFDGLVFYTGRLKDALDNGFDILALSPGISERQPDIEAFKQNGGRVL | not soluble
RQANELPGAPSQEEAVIAFGKFKLNLGTREMFREDEPMPLTSGEFAVLKALVSHPREPLSRDKLMNLARGREYSAMERSIDVQISRLRRMVEEDPAHPRYIQTVWGLGYVFVPDGSKA | soluble
GAMATSESPDAYTESFGAHTIVKPAGPPRVGQPSWNPQRASSMPVNRYRPFAEEVEPIRLRNRTWPDRVIDRAPLWCAVDLRDGNQALIDPMSPARKRRMFDLLVRMGYKEIEVGFPSASQTDFDFVREIIEQGAIPDDVTIQVLTQCRPELIERTFQACSGAPRAIVHFYNSTSILQRRVVFRANRAEVQAIATDGARKCVEQAAKYPGTQWRFEYSPESYTGTELEYAKQVCDAVGEVIAPTPERPIIFNLPATVEMTTPNVYADSIEWMSRNLANRESVILSLHPHNDRGTAVAAAELGFAAGADRIEGCLFGNGERTGNVCLVTLGLNLFSRGVDPQIDFSNIDEIRRTVEYCNQLPVHERHPYGGDLVYTAFSGSHQDAINKGLDAMKLDADAADCDVDDMLWQVPYLPIDPRDVGRTYEAVIRVNSQSGKGGVAYIMKTDHGLSLPRRLQIEFSQVIQKIAEGTAGEGGEVSPKEMWDAFAEEYLAPVRPLERIRQHVDAADDDGGTTSITATVKINGVETEISGSGNGPLAAFVHALADVGFDVAVLDYYEHAMSAGDDAQAAAYVEASVTIASPAQPGEAGRHASDPVTIASPAQPGEAGRHASDPVTSKTVWGVGIAPSITTASLRAVVSAVNRAAR | soluble
RDTSVVVEHTSANPTGPVHVGRARNPIIGDAVARVLDYAGYDVDRHYYVNDAGRQIAVFTWAYETFDEDDLPEPERESPEYEMVRYYRKGNTILEDGDPDEVEAAEAEVQSILQGLEDGDEETYERVAEVVDTVLGGMQNTLGRLPAEFDEFVKETKFMRNGDTDDLVDRLKGLDCAVYEEDAWQLDLPDFEKNLVFLRSDGTSLYTTRDLAHHEWKFDTYDRAVTVLGEDHKLQADQLAAALELLDNDTDQLRQVFYSWVNLPEGGMSTREGTGIDLDDLLDEAIDRAREEVESRLDDRTRGDLDEDDIDRIARQVGIGAVRYDIVSKQPTKGITFEWDRALDFEAQSAPYVQYV | not soluble
ALAETVSDFRLPNGLEVVVIEDHRAPVVTHMVWYRVGAADEPPGHSGIAHFLEHLMFKGTDEMSAGEFSATVEAQGGDDNAFTSWDYTAYFQRVAADRLDLMMKMEADRMRDLQMTEEDVRTERQVVLEERSQRTDSDPGAVFSEQSRAAAYLNHPYGIPIIGWRHEIEQLGREDAFSFYRTYYAPNNAILVVAGDVDPAEVRRMAEEHYGALEPTP | not soluble
